B1: HDV Ribozyme (parent)
chain: GGCCGGCAUGGUCCCAGCCUCCUCGCUGGCGCCGGCUGGGCAACAUUCCGAGGGGACCGUCCCCUCGGUAAUGGCGAAUGGGACCCA

The variants in this data set derive from B1. The data set is described as follows: self-cleavage, relative activity (ratio to wild type); higher = more cleavage; co-transcriptional.
GGCCGGCAUGGUCCCAGCCUCCUCGCUGGCGCCGGCUGGGCAACAUUCCGAGGGGACCGACCCCUCGGUAAUGGAGAAUGGGACCCA [U60A C75A]: the self-cleavage turned out to be 0.0811.

With GGCCGGCAUGGUCCCUGCAUCCUCGCUGGCGCCGGCUGGGCAACAUUCCGAGGGGACCGUCCCCUCGGUAAUGGCGAAUGGGACCCA [A16U C19A], the self-cleavage turned out to be 0.285. As for GGCCGGCAUGGUCCCAGCCUCCUCGCUGGCGACGGCUGGGCAACAUUCCGAGGGGACCGUCCCCUCGGUAAUGGCGAAUGGGACCCG [C32A A87G], the figure is 0.165. The result for GGCCGGCAUGGUCCGAGCCUCCUCGCUGGCGCCGGCUGGGCAACAUUCCGAGGGUACCGUCCCCUCGGUAAUGGCGAAUGGGACCCA [C15G G55U] reads 0.677; that for GGCCGGCAUGGUCCCAGCCUCCUCGCUGGCGCCGGCUGGGCAACAUUCUGAGGGGACCGUCCCCGCGGUAAUGGCGAAUGGGACCCA [C49U U65G], 0.939. Take GGUCGGCAUGGUCCCAGCCUCCUCGCUGGCGCCGGCUGGGCAACAUUCCGAGGGGACCGUCCCCUCGGUAAUGGCGAAUGGGACCCC [C3U A87C]: the self-cleavage is 0.759. For the variant GGCCGCCAUGGUCCCAGCCUCCUCGCUGGCGCCGGCUGGGCAACAUUCCGAGGGGACCGUCCCCUCGGUAAUGGCGAAUGGGACCCC [G6C A87C], the self-cleavage is 0.312. The result for GGCCGGCAUGGUCCCAGCCUCCUCGCUGGCGCCGGCUGGGCAACAUUCCGAGGGGACCGUCCCCUCGGUAAUGGCGAAUGGGACACA [C85A] reads 0.932; that for GGCCGGCAUGGUCCCAGCCUCCUCACUGGCGCCGGCUGGGCAACAUUCCGAGGGGACCGUCCCGUCGGUAAUGGCGAAUGGGACCCA [G25A C64G], 0.13; that for GGCCGGCAUGGUCCCUGCCUCCUCGCUAGCGCCGGCUGGGCAACAUUCCGAGGGGACCGUCCCCUCGGUAAUGGCGAAUGGGACCCA [A16U G28A], 0.0475.

With GGCCGGCAUGGUCCCAGCCUCCAAGCUGGCGCCGGCUGGGCAACAUUCCGAGGGGACCGUCCCCUCGGUAAUGGCGAAUGGGACCCA [U23A C24A], the self-cleavage is 0.623. GGCCGGCAUGGUCCCAGCCUCCUCGCUGGCGCCGGCUGGGCAACAUUCCGAGGGGACCGUACCCUCGGAAAUGGCGAAUGGGACCCA [C61A U69A]: the self-cleavage is 1.09. With GGCAGGCAUGGUCCCAGCCUCCUCGCUGGCGCCGGCUGGGCAACAUUCCGAGGGGACCGUCCCCUCAGUAAUGGCGAAUGGGACCCA [C4A G67A], the self-cleavage was determined as 0.149. GGCCGGCAUGGUCCCAGCCUCCUCGCUGGCGCCGGCUGGGCAACAUUCCGAAGGGACCGUCCCCUCGGUAAUGGCGUAUGGGACCCA [G52A A77U]: the self-cleavage amounted to 0.694. With GGCCGGCAUGGUCCCAGCCUCCUCGCUGGCGCCGGCUGGGCAACAUUCCGAGGGGACCGUCCCCUCGGUAACGGCGAAUGGGCCCCA [U72C A83C], the self-cleavage was 0.332. The result for GGCCGGCAUGGCCCCAGCCUCCUCGCUAGCGCCGGCUGGGCAACAUUCCGAGGGGACCGUCCCCUCGGUAAUGGCGAAUGGGACCCA [U12C G28A] reads 0.0707; that for GGCCGGCAUGGUCCCUGCCUCCUCGCUGGCGCCGGCUGGGCAACAUUCCGAGGGGACCGUCCCCACGGUAAUGGCGAAUGGGACCCA [A16U U65A], 0.831. As for GGCCGGCAUGGUCCCAGCCUCCUCGCUGGCGCCGGCUGGGCAACAUUCCGAGAGGACCGUCCCCUCGGUUAUGGCGAAUGGGACCCA [G53A A70U], the figure is 1.02.

As for GGCCGGCAUGGUCCCAGCCUCCUCGCUGGCGCCGGCUGGGCAACAUUCCGAGGGGACAGUCCCCUCGGUAAUGGCGAAGGGGACCCA [C58A U79G], the self-cleavage came out at 0.772. Take GGCCGGCAUGGUCCCAGCCUCCUCGCGGGCGCCGGCUGGGCAACAUUCCGAGGGGACCGUUCCCUCGGUAAUGGCGAAUGGGACCCA [U27G C61U]: the self-cleavage is 0.831. As for GGCCGGCAUGGUCCCACCCUCCUCGCUUGCGCCGGCUGGGCAACAUUCCGAGGGGACCGUCCCCUCGGUAAUGGCGAAUGGGACCCA [G17C G28U], the figure is 0.0707. The result for GGCCGGCAUGGUCCCAGCCUCCUCGCUGGCACCGGCUGGGCAAUAUUCCGAGGGGACCGUCCCCUCGGUAAUGGCGAAUGGGACCCA [G31A C44U] reads 0.0898; that for GGCCGGCAUGGUCCCCGCCUCCUCGCUGGCGCCGGCUGGGCAACAUUCCGAGGGGACCGUCCCCUCGGUAAUGGCGAACGGGACCCA [A16C U79C], 0.8. Take GGCCGGCAUGGUCCCAUCCUCCUCGCUGGCGCCGGCUGGGAAACAUUCCGAGGGGACCGUCCCCUCGGUAAUGGCGAAUGGGACCCA [G17U C41A]: the self-cleavage stood at 0.104. The result for GGCCGGCAUGGUCCCAGCCUCCUCGCUGGCGCCGGCUGGGCAACAUUCCCAGGGGACCGUCCCCUCGGUAAUGUCGAAUGGGACCCA [G50C G74U] reads 0.292.

As to GGCCGCCAUGGUCCCAGCCUCCUCGCUGGCGCCGGCUGGGCAACGUUCCGAGGGGACCGUCCCCUCGGUAAUGGCGAAUGGGACCCA [G6C A45G], the self-cleavage stood at 0.361. With GGCAGGCAUGGUCCCAGCCUCCUCGCUGGCGCCGGCUUGGCAACAUUCCGAGGGGACCGUCCCCUCGGUAAUGGCGAAUGGGACCCA [C4A G38U], the self-cleavage came out at 0.0449. As for GGCCGGCAUGGUCCCAGCCUCCUCGCUGGCGCCGGCUGGGCAACAUUCCGAGGGGACCGUCCCCUCGGUAAUGGCGUAUGGGGCCCA [A77U A83G], the figure is 0.261; as for GGCCGGCAUGGUCCCAGCCUCCUCGCUGGCGCCGGCUGGGCAACAUUCCGAGGGGACCGUCCCCUCGGUCAUGGAGAAUGGGACCCA [A70C C75A], 0.123. For GGCCGGCAUGGUCCCAGCCUCCCCGCUGGCGCCGGCUGGGCAACAUUCCGAGGGGACCGUCCCCUCGGUAAUGGCGAAUCGGACCCA [U23C G80C], the self-cleavage came out at 0.188. As for GGCCGGCAUGGUCCCAGCCUCCUCGCUGGCGCAGGCUGGGCAAGAUUCCGAGGGGACCGUCCCCUCGGUAAUGGCGAAUGGGACCCA [C33A C44G], the figure is 0.0475. The result for GGCCUGCAUGGCCCCAGCCUCCUCGCUGGCGCCGGCUGGGCAACAUUCCGAGGGGACCGUCCCCUCGGUAAUGGCGAAUGGGACCCA [G5U U12C] reads 0.0831.

Source of the values: the RNAGym collection of RNA variant scans (doi:10.7554/elife.80360).
